Results reported in PMC6447619, “New type of interaction between the SARAH domain of the tumour suppressor RASSF1A and its mitotic kinase Aurora A” (Scientific Reports, 2019).

T1: Aurora A kinase domain (residues 107–403) (human, UniProt O14965 107-403)
T1 construct: Aurora A kinase, human, kinase domain only, residues 107-403
T1 sequence (looked up): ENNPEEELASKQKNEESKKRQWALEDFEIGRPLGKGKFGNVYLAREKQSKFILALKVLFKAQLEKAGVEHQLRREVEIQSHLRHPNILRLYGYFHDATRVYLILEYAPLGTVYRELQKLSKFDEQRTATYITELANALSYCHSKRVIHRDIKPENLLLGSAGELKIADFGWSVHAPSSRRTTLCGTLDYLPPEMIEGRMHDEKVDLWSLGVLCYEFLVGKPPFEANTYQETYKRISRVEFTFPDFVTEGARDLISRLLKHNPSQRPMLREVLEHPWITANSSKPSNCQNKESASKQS

T2: Aurora A kinase domain (residues 107–403) (human) (UniProt O14965)
T2 sequence: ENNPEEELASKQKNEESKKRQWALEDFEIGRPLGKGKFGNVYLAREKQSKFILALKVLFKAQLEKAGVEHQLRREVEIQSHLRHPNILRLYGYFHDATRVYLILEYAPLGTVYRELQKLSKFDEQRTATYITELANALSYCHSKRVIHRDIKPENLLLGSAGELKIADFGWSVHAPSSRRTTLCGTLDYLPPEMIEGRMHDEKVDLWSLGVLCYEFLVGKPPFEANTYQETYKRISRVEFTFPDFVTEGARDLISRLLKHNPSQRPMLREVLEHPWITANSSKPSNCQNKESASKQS


Key:
[1] = biological target: the molecule itself; assay: SEC; analytical gel filtration on Superose 6 10/300 GL, 100 μl of dilution series injected (RBD 1.5-17.5 μM, ∆N 4.5-35 μM, SARAH 1.5-80 μM), 25 mM HEPES pH 7.4, 300 mM NaCl; MBP-tagged constructs; dimer to monomers
[2] = biological target: T1, Aurora A kinase domain (residues …); assay: SPR; Biacore X; Aurora A kinase domain immobilised on a CM5 chip, RASSF1A variants as analytes; HBS-EP (10 mM HEPES pH 7.4, 150 mM NaCl, 3 mM EDTA, 0.005% Tween-20), 25 °C; equilibria not reached because of irreversible aggregation on the surface; conditions: both partners purified
[3] = biological target: T2, Aurora A kinase domain (residues 107–403) (human)

binding result [2]	Km of phosphorylation of ∆N-∆loop by Aurora A kinase domain (40 nM), 32P incorporation [3] [µM]	Binder	stoichiometry N [1]
–	–	RASSF1A ∆N (residues 121–340) (domain or fragment, UniProt Q9NS23-2 121-340, looked up, Ras-association domain family 1 isoform A (RASSF1A), 340 residues, residues 121-340 (RBD plus SARAH domain); numbers count on: isoform A; 69 kDa with the MBP tag; Monomer-dimer equilibrium by SEC; also called ΔN; ΔN fragment; not shown: MBP, N-terminal, kept) EPVEWETPDLSQAEIEQKIKEYNAQINSNLFMSLNKDGSYTGFIKVQLKLVRPVSVPSSKKPPSLQDARRGPGRGTSVRRRTSFYLPKDAVKHLHVLSRTRAREVIEALLRKFLVVDDPRKFALFERAERHGQVYLRKLLDDEQPLRLRLLAGPSDKALSFVLKENDSGEVNWDAFSMPELHNFLRILQREEEEHLRQILQKYSYCRQKIQEALHACPLG	2
binds	–	VNWDAFSMPELHNFLRILQREEEEHLRQILQKYSYCRQKIQEALHACPLG (domain or fragment, UniProt Q9NS23-2 291-340, looked up, Ras-association domain family 1 isoform A (RASSF1A), residues 291-340 (SARAH domain); numbers count on: isoform A; 51 kDa with the MBP tag; Monomer-dimer equilibrium by SEC; also called isolated SARAH domain; SARAH domain construct; not shown: MBP, N-terminal, kept) [SARAH domain of RASSF1A (residues 291–340)]	2
–	10	RASSF1A ∆N-∆loop (residues 121–340 lacking the loop 177–197) (domain or fragment) EPVEWETPDLSQAEIEQKIKEYNAQINSNLFMSLNKDGSYTGFIKVQLKLVRPVSVVRRRTSFYLPKDAVKHLHVLSRTRAREVIEALLRKFLVVDDPRKFALFERAERHGQVYLRKLLDDEQPLRLRLLAGPSDKALSFVLKENDSGEVNWDAFSMPELHNFLRILQREEEEHLRQILQKYSYCRQKIQEALHACPLG	–
